Source: patent US20250282887A1 (Amgen, published 2025)
Positions count from the first letter of the chain named.

T1: human MAGEA4 (human, UniProt P43358 1-317)
T1 construct: whole, on cells; Transfected into CHO cells with Myc/DDK tags
T1 sequence (looked up): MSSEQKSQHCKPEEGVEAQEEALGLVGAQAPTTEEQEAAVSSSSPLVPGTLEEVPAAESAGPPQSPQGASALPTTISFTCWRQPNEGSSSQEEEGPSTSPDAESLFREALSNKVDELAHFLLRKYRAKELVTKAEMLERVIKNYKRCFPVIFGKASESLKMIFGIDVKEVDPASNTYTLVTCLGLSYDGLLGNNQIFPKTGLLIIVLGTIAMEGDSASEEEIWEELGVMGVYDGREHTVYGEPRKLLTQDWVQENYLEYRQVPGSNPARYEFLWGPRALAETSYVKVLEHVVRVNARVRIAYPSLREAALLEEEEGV

T2: human MAGEB1 (human, UniProt P43366 1-347)
T2 construct: whole, on cells; Transfected into CHO cells with Myc/DDK tags
T2 sequence (looked up): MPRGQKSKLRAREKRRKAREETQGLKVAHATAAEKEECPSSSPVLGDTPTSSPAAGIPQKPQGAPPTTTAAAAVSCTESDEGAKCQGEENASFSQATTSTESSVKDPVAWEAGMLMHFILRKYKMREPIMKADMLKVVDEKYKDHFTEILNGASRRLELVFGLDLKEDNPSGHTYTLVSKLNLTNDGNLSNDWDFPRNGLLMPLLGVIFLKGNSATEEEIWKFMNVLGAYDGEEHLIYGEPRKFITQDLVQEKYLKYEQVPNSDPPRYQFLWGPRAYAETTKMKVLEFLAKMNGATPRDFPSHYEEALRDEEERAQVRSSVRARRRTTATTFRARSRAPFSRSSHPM

B1: 1I14 (antibody, V domains shown)
VH: QSVEESGGRLVTPGTPLTLTCTISGFSLSSYAMSWVRQAPGKGLEWIGSIGGGGSAVYASWAKGRFTISKTSTTVDLRITSPTTEDTAMYFCGRGFYSIDLWGPGTLVTVSS
VL: DVVMTQTPASVEATVGGTVTIKCQSSQSVYDNNALAWYQQNAGQRPRLLIYGASTLASGVPSRFSASGSGTEFTLTISDLECADAATYYCQCTYYVSSYQNDFGGGTEVVVKG
notes: also called MAGE-B2 (1i14)
B2: 1C3 (antibody, V domains shown)
VH: QSLEESGGGLVQPEGSLTLTCTAFGVTLTNYYICWVRQAPGKGLEWVGCIDNANGRTYYASWAKGRFTISKTSSTTGTLQMTSLTAADTATYFCARSLATPLWGPGTLVTVSS
VL: DIVMTQTPSSVEAAVGGTVTIKCQASQNISSYLAWYQQKPGQPPKLLIYRASTLASGVPSRFKGSGSGTQFTLTISDLECADAATYYCQSYDDSRSSNFFYAFGGGTEVVVKG
notes: also called MAGE-B2 (IC3); anti-MAGEB2 antibody 1C3
B3: 4G17 (antibody, IgG1, V domains shown)
VH: B2 VH with F24S, T29S, V47I, A53V
VL: DIVMTQTPASVEAAVGGTVTIKCQASQNIDSYLAWYQQKPGQPPKLLIYRASTLASGVPSRFKGSGSGTEFTLTISDLECADAATYYCQSYDDSRSSSFFYGFGGGTEVVVK
notes: Rabbit monoclonal IgG1; Tested as supernatant and as small batch purified antibody; also called MAGE-B2 (4G17); anti-MAGEB2 antibody 4G17
B4: 1J15 (antibody, IgG1, V domains shown)
VH: B2 VH with V26F, T29N, V47I, G48A, G77V, A99S
VL: B3 VL with N28S, D30S, A34S, K63R, E70Q, R95S, S96D, S97N, S98N, K112R
notes: Rabbit monoclonal IgG1; Tested as supernatant and as small batch purified antibody; also called MAGE-B2 (IJ15); anti-MAGEB2 antibody 1J15

target: T3, human MAGEA3 (human, UniProt P43357 1-314); test: IHC, FFPE CHO cells transfected with human MAGEA3
T3 construct: whole, on cells; FFPE cell pellets
Description: (§1) FFPE samples were sectioned at 4 μm and mounted on positive charged glass slides. After mounting, paraffin sections were air-dried at room temperature. FFPE TMA samples were received as freshly sectioned and mounted on glass slides. The fully automated IHC assay was performed on a Discovery Ultra Stainer (Ventana Medical Systems, Tucson, AZ) using Ventana Anti-Rabbit HQ (cat #760-4815), Ventana Anti-HQ HRP (cat #760-4820), and Ventana Antibody Diluent with Casein (cat #760-219) (Ventana Medical Systems, Tucson, AZ). The slides were baked on the Discovery Ultra Stainer at 60° C. for 8 minutes, de-paraffinized with Ventana Discovery wash (cat #950-510) for 3 cycles (8 minutes each) at 69° C., and underwent cell conditioning (target retrieval) at 95° C. for 16 minutes (for cell arrays) or 32 minutes (tissues or TMAs) in CC1 buffer (cat #950-500). Following this, slides were incubated with Background Sniper (cat #BS966M, Biocare Medical, Pacheco, CA) in a Ventana Option Prep kit (cat #771-751) for 28 minutes, incubated with CM inhibitor (a part of the Ventana DAB kit cat #760-159) for 12 minutes, and incubated for 1 h at RT with MAGE-B2 antibody diluted with Ventana diluent with Casein in a Ventana Prep kit (cat #770-001) (working concentration at 0.1 μg/ml for cell pellet, or 1-5 ug/ml for tissues) or with a matched concentration of isotype control Rabbit IgG1 antibody. Following this, slides were incubated with the Ventana Anti-Rabbit HQ (cat #760-4815) for 28 minutes at RT, Ventana Anti-HQ HRP (cat #760-4820) for 28 minutes at RT, and signals detected with Ventana DAB chromogen kit (cat #760-159) for 5 minutes at RT. Slides were counterstained with Ventana Hematoxylin II (cat #5266726001) for 8 minutes and Ventana Bluing reagent (cat #526676900) for 4 minutes. Slides were coverslipped and digitized using an Aperio AT2 scanner (Leica Biosystems Inc, Buffalo Grove, IL).

T3 sequence (P43357 whole entry): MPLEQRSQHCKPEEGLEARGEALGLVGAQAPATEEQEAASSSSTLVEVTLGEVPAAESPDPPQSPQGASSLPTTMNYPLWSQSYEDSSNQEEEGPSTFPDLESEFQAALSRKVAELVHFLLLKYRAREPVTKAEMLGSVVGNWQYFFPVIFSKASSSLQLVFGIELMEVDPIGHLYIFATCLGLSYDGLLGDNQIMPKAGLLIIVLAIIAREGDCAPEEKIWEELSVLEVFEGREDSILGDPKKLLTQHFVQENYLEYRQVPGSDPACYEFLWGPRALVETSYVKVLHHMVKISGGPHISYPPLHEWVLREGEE

Q: Does B1 bind?
A: no binding (tested: 0.1 µg/ml)

Q: Does B2 bind?
A: no binding (tested: 0.1 µg/ml)

Q: Does B3 bind?
A: no binding (tested: 0.1 µg/ml)

Q: Does B4 bind?
A: no binding (tested: 0.1 µg/ml)

target: T1, human MAGEA4; test: IHC, FFPE CHO cells transfected with human MAGEA4
Description: (§2) Negative control cells included parental Chinese hamster ovary (CHO) cells, CHO cells stably transfected with mCherry Vector Control (minus Myc/DDK tags), CHO cells stably transfected with mCherry-human DCAF4L2 (plus Myc/DDK tags). The cross-reactivity control cells included CHO cells transfected with mCherry Vector Control (plus Myc/DDK tags) with one of the human MAGE-B or MAGE-A family members (MAGEA1, MAGEA2, MAGEA3, MAGEA4, MAGEA5, MAGEA6, MAGEA8, MAGEA9, MAGEA11, MAGEA12, MAGEB1, MAGEB3, MAGEB4, MAGEB5, MAGEB6, MAGEB10, MAGEB16, MAGEB17, MAGEB18). Positive control cell lines included CHO cells transfected with mCherry Vector (plus Myc/DDK tags) with human MAGE-B2 or CHO cells transfected with mCherry Vector (open reading frame (ORF); minus Myc/DDK tags) with human MAGEB2, and thirteen human cancer cell lines with known endogenous RNA expression level of MAGEB2 (U266B1, T98G, KMM-1, U20S, CFPAC-1, SCaBER, UACC-257, CFPAC-1, VMRC-LCD, NCI-H1703, UM-UC-3, NCI-H1395, NCIH82).
as §1, with “antibody.” for “antibody. Following this, slides were incubated with the Ventana Anti-Rabbit HQ (cat #760-4815) for 28 minutes at RT, Ventana Anti-HQ HRP (cat #760-4820) for 28 minutes at RT, and signals detected with Ventana DAB chromogen kit (cat #760-159) for 5 minutes at RT. Slides were counterstained with Ventana Hematoxylin II (cat #5266726001) for 8 minutes and Ventana Bluing reagent (cat #526676900) for 4 minutes. Slides were coverslipped and digitized using an Aperio AT2 scanner (Leica Biosystems Inc, Buffalo Grove, IL).”

Q: Does B1 bind?
A: no binding (tested: 0.1 µg/ml)

Q: Does B2 bind?
A: no binding (tested: 0.1 µg/ml)

Q: Does B3 bind?
A: no binding (tested: 0.1 µg/ml)

Q: Does B4 bind?
A: no binding (tested: 0.1 µg/ml)

target: T2, human MAGEB1; test: IHC, FFPE CHO cells transfected with human MAGEB1
Description: as §2
as §1, with “antibody.” for “antibody. Following this, slides were incubated with the Ventana Anti-Rabbit HQ (cat #760-4815) for 28 minutes at RT, Ventana Anti-HQ HRP (cat #760-4820) for 28 minutes at RT, and signals detected with Ventana DAB chromogen kit (cat #760-159) for 5 minutes at RT. Slides were counterstained with Ventana Hematoxylin II (cat #5266726001) for 8 minutes and Ventana Bluing reagent (cat #526676900) for 4 minutes. Slides were coverslipped and digitized using an Aperio AT2 scanner (Leica Biosystems Inc, Buffalo Grove, IL).”

Q: Does B1 bind?
A: no binding (tested: 0.1 µg/ml)

Q: Does B2 bind?
A: no binding (tested: 0.1 µg/ml)

Q: Does B3 bind?
A: no binding (tested: 0.1 µg/ml)

Q: Does B4 bind?
A: no binding (tested: 0.1 µg/ml)
